This passage reports reverse-splicing fitness results from the RNAGym collection of RNA variant scans (doi:10.1093/molbev/msab373).

The labels stand for the following.
B1: Azoarcus group I ribozyme (parent)
chain: GUGCCUUGCGCCGGGAAACCACGCAAGGGAUGGUGUCAAAUUCGGCGAAACCUAAGCGCCCGCCCGGGCGUAUGGCAACGCCGAGCCAAGCUUCGGCGCCUGCGCCGAUGAAGGUGUAGAGACUAGACGGCACCCACCUAAGGCAAACGCUAUGGUGAAGGCAUAGUCCAGGGAGUGGCGAAAGUCACACAAACCGG

In the series the parent is B1. Nature of the series: reverse-splicing fitness (ratio to wild type); higher = more active; in vitro selection; Mg2+ level not given. The method in brief:
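An in vitro group I ribozyme library with randomized positions was T7-transcribed and gel-purified. In triplicate, 10 pmol RNA in EPPS pH 7.5 was reacted with 50 pmoles of a 30-nt RNA substrate for 1 h at 37 °C across several added MgCl2 levels (1–48 mM), then stopped with EDTA. Products were reverse transcribed from a substrate-complementary primer, PCR-amplified and sequenced (HiSeq 4000). Fitness is a variant's read proportion after selection over that before, normalised to wild type.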
With GUGCCUUGCGCCGGGAAACCACGCAAGGGAUGGUGUCAAAUUCGGCGAAACCUAAGCGCCCGCCCGGGCGUAUGGCAACGCAGAGCCAAGCUUCGGCGCCUGCGCCGAUGAAGGUGUAGAGACUAGACGGCACCCACCUAAGGCUAACGAUAUGGUGAAGGCAUAGUCGAGGGAGAGGCGAAAGUCACACAAACCGG [C82A A145U C150A C169G U176A], the reverse-splicing fitness stood at 0.0139. For the variant GUGCCUUGCGCCGGGAAACCACGCAAGGGAUGGUGUCAAAUUCGGCGAAACCUAAGCGCCCGCCCGGGCGUAUGGCAACGCAGAGCCAAGCUUCGGCGCCUGCGCCGAUGAAGGUGUAGUGACUAGACGGCACCCACCUAAGGCAAACGUUAUGGUGAAGGCAUAGUCUAGGGAGAGGCGAAAGUCACACAAACCGG [C82A A120U C150U C169U U176A], the reverse-splicing fitness stood at 0.00458.

For GUGCCUUGCGCCGGGAAACCACGCAAGGGAUGGUGUCAAAUUCGGCGAAACCUAAGCGCCCGCCCGGGCGUAUGGCAACGCGGAGCCAAGCUUCGGCGCCUGCGCCGAUGUAGGUGUAGGGACUAGACGGCACCCACCUAAGGCUAACGAUAUGGUGAAGGCAUAGUCGAGGGAGCGGCGAAAGUCACACAAACCGG [C82G A111U A120G A145U C150A C169G U176C], the reverse-splicing fitness was determined as 0.0163. The value for GUGCCUUGCGCCGGGAAACCACGCAAGGGAUGGUGUCAAAUUCGGCGAAACCUAAGCGCCCGCCCGGGCGUAUGGCAACGCAGAGCCAAGCUUCGGCGCCUGCGCCGAUGUAGGUGUAGAGACUAGACGGCACCCACCUAAGGCCAACGGUAUGGUGAAGGCAUAGUCAAGGGAGUGGCGAAAGUCACACAAACCGG [C82A A111U A145C C150G C169A] was 0.00825; that for GUGCCUUGCGCCGGGAAACCACGCAAGGGAUGGUGUCAAAUUCGGCGAAACCUAAGCGCCCGCCCGGGCGUAUGGCAACGCUGAGCCAAGCUUCGGCGCCUGCGCCGAUGCAGGUGUAGUGACUAGACGGCACCCACCUAAGGCAAACGCUAUGGUGAAGGCAUAGUCGAGGGAGUGGCGAAAGUCACACAAACCGG [C82U A111C A120U C169G] was 0.00401. With GUGCCUUGCGCCGGGAAACCACGCAAGGGAUGGUGUCAAAUUCGGCGAAACCUAAGCGCCCGCCCGGGCGUAUGGCAACGCCGAGCCAAGCUUCGGCGCCUGCGCCGAUGAAGGUGUAGCGACUAGACGGCACCCACCUAAGGCUAACGGUAUGGUGAAGGCAUAGUCCAGGGAGGGGCGAAAGUCACACAAACCGG [A120C A145U C150G U176G] the figure was 0.0206; with GUGCCUUGCGCCGGGAAACCACGCAAGGGAUGGUGUCAAAUUCGGCGAAACCUAAGCGCCCGCCCGGGCGUAUGGCAACGCUGAGCCAAGCUUCGGCGCCUGCGCCGAUGAAGGUGUAGUGACUAGACGGCACCCACCUAAGGCUAACGAUAUGGUGAAGGCAUAGUCAAGGGAGUGGCGAAAGUCACACAAACCGG [C82U A120U A145U C150A C169A], 0.00179. With GUGCCUUGCGCCGGGAAACCACGCAAGGGAUGGUGUCAAAUUCGGCGAAACCUAAGCGCCCGCCCGGGCGUAUGGCAACGCUGAGCCAAGCUUCGGCGCCUGCGCCGAUGCAGGUGUAGUGACUAGACGGCACCCACCUAAGGCAAACGGUAUGGUGAAGGCAUAGUCUAGGGAGGGGCGAAAGUCACACAAACCGG [C82U A111C A120U C150G C169U U176G] the figure was 0.00265; with GUGCCUUGCGCCGGGAAACCACGCAAGGGAUGGUGUCAAAUUCGGCGAAACCUAAGCGCCCGCCCGGGCGUAUGGCAACGCCGAGCCAAGCUUCGGCGCCUGCGCCGAUGCAGGUGUAGGGACUAGACGGCACCCACCUAAGGCUAACGCUAUGGUGAAGGCAUAGUCUAGGGAGUGGCGAAAGUCACACAAACCGG [A111C A120G A145U C169U], 0.174. On to GUGCCUUGCGCCGGGAAACCACGCAAGGGAUGGUGUCAAAUUCGGCGAAACCUAAGCGCCCGCCCGGGCGUAUGGCAACGCCGAGCCAAGCUUCGGCGCCUGCGCCGAUGAAGGUGUAGCGACUAGACGGCACCCACCUAAGGCCAACGCUAUGGUGAAGGCAUAGUCAAGGGAGAGGCGAAAGUCACACAAACCGG [A120C A145C C169A U176A], for which the reverse-splicing fitness came out at 0.00918.

As to GUGCCUUGCGCCGGGAAACCACGCAAGGGAUGGUGUCAAAUUCGGCGAAACCUAAGCGCCCGCCCGGGCGUAUGGCAACGCGGAGCCAAGCUUCGGCGCCUGCGCCGAUGUAGGUGUAGGGACUAGACGGCACCCACCUAAGGCCAACGGUAUGGUGAAGGCAUAGUCUAGGGAGCGGCGAAAGUCACACAAACCGG [C82G A111U A120G A145C C150G C169U U176C], the reverse-splicing fitness came to 0.0123. With GUGCCUUGCGCCGGGAAACCACGCAAGGGAUGGUGUCAAAUUCGGCGAAACCUAAGCGCCCGCCCGGGCGUAUGGCAACGCAGAGCCAAGCUUCGGCGCCUGCGCCGAUGAAGGUGUAGCGACUAGACGGCACCCACCUAAGGCCAACGGUAUGGUGAAGGCAUAGUCGAGGGAGGGGCGAAAGUCACACAAACCGG [C82A A120C A145C C150G C169G U176G], the reverse-splicing fitness is 0.00575. Take GUGCCUUGCGCCGGGAAACCACGCAAGGGAUGGUGUCAAAUUCGGCGAAACCUAAGCGCCCGCCCGGGCGUAUGGCAACGCUGAGCCAAGCUUCGGCGCCUGCGCCGAUGGAGGUGUAGAGACUAGACGGCACCCACCUAAGGCAAACGUUAUGGUGAAGGCAUAGUCAAGGGAGAGGCGAAAGUCACACAAACCGG [C82U A111G C150U C169A U176A]: the reverse-splicing fitness was determined as 0.0145.

Regarding GUGCCUUGCGCCGGGAAACCACGCAAGGGAUGGUGUCAAAUUCGGCGAAACCUAAGCGCCCGCCCGGGCGUAUGGCAACGCGGAGCCAAGCUUCGGCGCCUGCGCCGAUGGAGGUGUAGUGACUAGACGGCACCCACCUAAGGCUAACGCUAUGGUGAAGGCAUAGUCUAGGGAGGGGCGAAAGUCACACAAACCGG [C82G A111G A120U A145U C169U U176G], the reverse-splicing fitness came to 0.00199. The value for GUGCCUUGCGCCGGGAAACCACGCAAGGGAUGGUGUCAAAUUCGGCGAAACCUAAGCGCCCGCCCGGGCGUAUGGCAACGCAGAGCCAAGCUUCGGCGCCUGCGCCGAUGCAGGUGUAGAGACUAGACGGCACCCACCUAAGGCGAACGUUAUGGUGAAGGCAUAGUCGAGGGAGCGGCGAAAGUCACACAAACCGG [C82A A111C A145G C150U C169G U176C] was 0.0162.
